Each block holds one substance with its values, some of them ahead of it.
How the values were obtained:
[1] = molecular target: Dylight488-labeled GluA2 amino terminal domain; test: AUC; FDS-SV, dilution series of Dylight488-GluA2 ATD, two different runs, global best-fit single component, single class of sites model (Figure 5A); dimer to monomers
[2] = molecular target: Alexa Fluor 568-labeled GluA2 amino terminal domain; test: FRET or BRET; kinetic FRET in a spectrofluorometer, 20°C, excitation 495 nm, emission 603 nm; 50 nM donor-labeled and 50 nM AF568-labeled GluA2 ATD pre-equilibrated (30 min DL488, 60 min FAM), then 1 µM unlabeled GluA2 ATD added; decay fitted with exponential functions
[3] = molecular target: Dylight488-labeled GluA2 amino terminal domain; test: AUC; fluorescence-detected sedimentation velocity (FDS-SV), dilution series of labeled protein (Figure 3); 50,000 rpm, 20°C; 20 mM Na phosphate pH 7.5, 150 mM NaCl, 1 mM EDTA, 0.1 mg/mL BSA carrier; sw isotherm fitted with a monomer-dimer model; dimer to monomers
[4] = molecular target: FAM (5,6-carboxyfluorescein)-labeled GluA2 amino terminal domain; test: AUC; FDS-SV, dilution series of FAM-GluA2 ATD at labeling ratio 1.32, single-component fit excluding the two lowest concentrations and freely adjusting the s-values (Figure 5A, thin blue line); dimer to monomers
[5] = molecular target: FAM (5,6-carboxyfluorescein)-labeled GluA2 amino terminal domain; test: AUC; FDS-SV, dilution series of FAM-GluA2 ATD at labeling ratio 1.05 (Figure 4C/D); 20°C, pH 7.5, 0.1 mg/mL BSA; monomer-dimer model; dimer to monomers
[6] = molecular target: FAM (5,6-carboxyfluorescein)-labeled GluA2 amino terminal domain; test: AUC; FDS-SV, dilution series of FAM-GluA2 ATD at labeling ratio 2.26 (Figure 4E/F); 20°C, pH 7.5, 0.1 mg/mL BSA; monomer-dimer model; dimer to monomers
[7] = molecular target: FAM (5,6-carboxyfluorescein)-labeled GluA2 amino terminal domain; test: AUC; FDS-SV, dilution series of FAM-GluA2 ATD at labeling ratio 1.32 extended to lower concentrations (Figure 5); all fits with s-values constrained to those of Dylight488-GluA2 ATD: single-component fit, and three-component fit with populations of different affinity; dimer to monomers
[8] = molecular target: FAM (5,6-carboxyfluorescein)-labeled GluA2 amino terminal domain; test: AUC; FDS-SV, dilution series of FAM-GluA2 ATD at labeling ratio 0.68 (Figure 4A/B), down to very low concentrations; 20°C, pH 7.5, 0.1 mg/mL BSA; monomer-dimer model; dimer to monomers
[9] = molecular target: FAM (5,6-carboxyfluorescein)-labeled GluA2 amino terminal domain; test: AUC; fluorescence-detected sedimentation velocity (FDS-SV), dilution series of labeled protein (Figure 3); 50,000 rpm, 20°C; 20 mM Na phosphate pH 7.5, 150 mM NaCl, 1 mM EDTA, 0.1 mg/mL BSA carrier; sw isotherm fitted with a monomer-dimer model; dimer to monomers
[10] = molecular target: GluA2 ATD ATD (Rattus norvegicus) (UniProt P19491); test: sedimentation velocity AUC (far-UV absorbance); details: cited from earlier work
[11] = molecular target: EGFP-GluA2 ATD fusion protein; test: AUC; FDS-SV, titration series: constant low concentration of labeled protein (1 nM for FAM-GluA2 ATD) with unlabeled GluA2 ATD at a range of concentrations (Figure S1); 20°C, pH 7.5, 0.1 mg/mL BSA; sw isotherm, monomer-dimer model; dimer to monomers
[12] = molecular target: Dylight488-labeled GluA2 amino terminal domain; test: as above
[13] = molecular target: FAM (5,6-carboxyfluorescein)-labeled GluA2 amino terminal domain; test: as above

Chain of EGFP-GluA2 ATD fusion protein (P23819 25-404): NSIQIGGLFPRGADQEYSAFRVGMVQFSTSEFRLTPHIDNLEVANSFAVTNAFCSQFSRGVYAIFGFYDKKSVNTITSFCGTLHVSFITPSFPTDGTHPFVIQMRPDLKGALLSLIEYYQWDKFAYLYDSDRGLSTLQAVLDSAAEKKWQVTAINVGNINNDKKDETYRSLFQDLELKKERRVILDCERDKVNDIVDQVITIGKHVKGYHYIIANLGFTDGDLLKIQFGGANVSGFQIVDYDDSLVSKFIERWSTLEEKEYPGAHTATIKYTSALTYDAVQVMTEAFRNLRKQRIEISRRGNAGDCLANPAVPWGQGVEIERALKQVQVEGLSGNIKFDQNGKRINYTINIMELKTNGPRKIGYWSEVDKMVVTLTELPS
Chain of GluA2 ATD ATD (P19491 22-400): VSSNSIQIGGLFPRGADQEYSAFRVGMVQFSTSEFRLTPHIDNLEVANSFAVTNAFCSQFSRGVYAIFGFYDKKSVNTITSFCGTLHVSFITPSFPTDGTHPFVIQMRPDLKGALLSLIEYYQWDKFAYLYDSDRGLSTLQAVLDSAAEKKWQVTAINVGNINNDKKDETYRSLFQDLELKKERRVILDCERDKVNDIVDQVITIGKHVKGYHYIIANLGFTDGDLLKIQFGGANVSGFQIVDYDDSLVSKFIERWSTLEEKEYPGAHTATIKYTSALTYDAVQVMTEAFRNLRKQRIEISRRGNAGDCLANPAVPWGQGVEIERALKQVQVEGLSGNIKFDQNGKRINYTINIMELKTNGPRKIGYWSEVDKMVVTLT

Kd [1]: 19.4 nM | half life of the donor/acceptor heterodimer (single-exponential decay) [2]: 2.72 min | time constant of the decay (single exponential fit, trace shown) [2]: 169 s | Kd [3]: 20.5 nM | stoichiometry N [3]: 2
Substance: Dylight488-labeled GluA2 amino terminal domain (domain or fragment)

Kd [4]: 4.6 nM | Kd [5]: 2.6 nM | Kd [6]: 4.7 nM | KD of the high-affinity population (three-component fit) [7]: 1.8 nM | KD of the low-affinity population (three-component fit) [7]: 24000 nM | Kd [7]: 6.3 nM | Kd [8]: 3.1 nM | life-time of the donor/acceptor heterodimer, fast component [2]: 95 s | life-time of the donor/acceptor heterodimer, slow component [2]: 723 s | time constant of the decay, fast component (double exponential fit, trace shown) [2]: 98 s | time constant of the decay, slow component (double exponential fit, trace shown) [2]: 640 s | Kd [9]: 2.3 nM | stoichiometry N [9]: 2
Substance: FAM (5,6-carboxyfluorescein)-labeled GluA2 amino terminal domain (domain or fragment)

Substance: GluA2 ATD ATD (from UniProt P19491)
Kd [10]: 9.4 nM

Kd [11]: 22 nM | Kd [12]: 16.5 nM | Kd [13]: 9 nM
Substance: GluA2 amino terminal domain (GluA2 ATD), unlabeled (domain or fragment)

From article PMC3866193
